Series [1] addresses T1, AgrR-His6 (Cupriavidus metallidurans NA4) (UniProt Q1LMJ6).
T1 sequence: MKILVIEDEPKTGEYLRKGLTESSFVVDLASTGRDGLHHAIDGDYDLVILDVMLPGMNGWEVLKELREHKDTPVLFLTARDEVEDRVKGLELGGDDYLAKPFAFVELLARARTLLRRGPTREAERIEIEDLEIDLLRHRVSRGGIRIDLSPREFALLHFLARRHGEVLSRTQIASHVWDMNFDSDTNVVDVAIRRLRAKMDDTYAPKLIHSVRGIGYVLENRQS
Nature of the series: EMSA. The note with it: 25 mM Na2HPO4, 150 mM NaCl, 0.1 mM EDTA, 2 mM MgCl2, 1 mM DTT, 10% glycerol, pH 7.0, 22 C, about 0.1 nM probe, 25 ug/ml sonicated salmon sperm DNA. For orientation: In EMSA bound probe runs differently from free probe, usually more slowly.

Series [2] addresses T1, AgrR-His6 (Cupriavidus metallidurans NA4). The experiment in a line: in gel (OP)2-Cu+ footprinting. The conditions noted are these: 25 mM Na2HPO4, 150 mM NaCl, 0.1 mM EDTA, 2 mM MgCl2, 1 mM DTT, 10% glycerol, pH 7.0, 22 C, about 0.1 nM probe, 25 ug/ml sonicated salmon sperm DNA.
Series [3] shares this target. Nature of the series: DNase I footprinting. The note with it: 25 mM Na2HPO4, 150 mM NaCl, 0.1 mM EDTA, 2 mM MgCl2, 1 mM DTT, 10% glycerol, pH 7.0, 22 C, about 0.1 nM probe, 25 ug/ml sonicated salmon sperm DNA.
The target of series [4] is T2, MBP-AgrR D51A D51A (Cupriavidus metallidurans NA4) (UniProt Q1LMJ6).
T2 sequence: T1 sequence with D51A
The experiment in a line: DNase I footprinting. The conditions noted are these: 25 mM Na2HPO4, 150 mM NaCl, 0.1 mM EDTA, 2 mM MgCl2, 1 mM DTT, 10% glycerol, pH 7.0, 22 C, about 0.1 nM probe, 25 ug/ml sonicated salmon sperm DNA.

Series [5] addresses T2, MBP-AgrR D51A D51A (Cupriavidus metallidurans NA4). The experiment in a line: EMSA. The conditions noted are these: 25 mM Na2HPO4, 150 mM NaCl, 0.1 mM EDTA, 2 mM MgCl2, 1 mM DTT, 10% glycerol, pH 7.0, 22 C, about 0.1 nM probe, 25 ug/ml sonicated salmon sperm DNA.
Series [6] has as its target T3, MBP-AgrR D51E D51E (Cupriavidus metallidurans NA4) (UniProt Q1LMJ6).
T3 sequence: T1 sequence with D51E
The experiment in a line: EMSA. The note with it: 25 mM Na2HPO4, 150 mM NaCl, 0.1 mM EDTA, 2 mM MgCl2, 1 mM DTT, 10% glycerol, pH 7.0, 22 C, about 0.1 nM probe, 25 ug/ml sonicated salmon sperm DNA.

Series [7] addresses T2, MBP-AgrR D51A D51A (Cupriavidus metallidurans NA4). Nature of the series: premodification binding interference (depurination, depyrimidination, DMS methylation). The note with it: 25 mM Na2HPO4, 150 mM NaCl, 0.1 mM EDTA, 2 mM MgCl2, 1 mM DTT, 10% glycerol, pH 7.0, 22 C, about 0.1 nM probe, 25 ug/ml sonicated salmon sperm DNA.
The subject of series [8] is AgrR-His6 (Cupriavidus metallidurans NA4). Nature of the series: EMSA. The note with it: 25 ug/ml salmon sperm DNA; 25 mM Na2HPO4, 150 mM NaCl, 0.1 mM EDTA, 2 mM MgCl2, 1 mM DTT, 10% glycerol, pH 7.0, 22 C, about 0.1 nM probe, 25 ug/ml sonicated salmon sperm DNA.
Series [9] relates to MBP-AgrR D51A (Cupriavidus metallidurans NA4). The experiment in a line: EMSA. The note with it: 25 ug/ml salmon sperm DNA; 25 mM Na2HPO4, 150 mM NaCl, 0.1 mM EDTA, 2 mM MgCl2, 1 mM DTT, 10% glycerol, pH 7.0, 22 C, about 0.1 nM probe, 25 ug/ml sonicated salmon sperm DNA.

This is an account of results in publication PMC7380067.

Where a chain is given by its changes, count along the chain named.

In the case of “AGGACGTTATCAGGGGTGGTGCGAGCCATGTCAAATTCCATTGATTCTTGTTCCCTGTCATTGAAGACCCTTTAGTCGCTACAGGGTCAAGCGCCTGCCGAAAATCTTTGGAGCGGCGCAAACATGACATGAACGTAATGTTTGCCCGCTCGCTAAACGCCTATAATCGCC (double strand) [czcI2 promoter]”, the binding result in series [1] was “binds more weakly”.
In general, Kd refers to a measure of binding affinity in units of concentration. In turn, “ATGGGTTACGGGTTGTTCACGGCTTGCTGGAGAGTCTGATCGGTCGTTGCGCGACCTTGGAATGCAGTCTAGAGGGCGGGTCCCGACGCGAACATGACCCTTGAATGACATTGATGTCATTTGTCCGAGGCAATGCGATACGATTGCCGGACAGGGTGCCGACCGGACAATGAATTCGGCCTTGGCGACAAATCCACGCCAAACAAC (double strand) [prsQ2 promoter/operator]” displayed a Kd in series [1] of 1600 nM. Besides, the binding entry in [2] is recorded as “binds”.
As to “ATTGGAGCGGCGAGTATAGAAATGCCGACATTTCGTTTCGATTGCGGCGAGATTACAGCCGCATCGTTCCGGGCGCGGGCAGGCAGAAAAGGAGGGCGCGAGAGAAGGGCGAGAGAAGGGCGAGGGAAGGGCGGGACTACCCCGCGCCTTGGGTGCGGGGCCTGTGTCGGGTCAATCGACCCAGTTCACCTT (double strand) [ompC-like promoter]”, the binding result in series [1] is “binds more weakly”.
Turning to “GTGTCCTCGTCAAACCAATGCACCCGGGCCCCGTGCCCGGAAAACGCCGCAAGTGTACGCCGCGGTCCGAACATGACGCGGACATTACCGGAATGTAATTTTTGGGTCATTAGGTGGTTACCGCGCCCTGACTACTCTGTGCTCGCTGCGCCATTTTGCTGGCGCGATTTCACAATGAGAA (double strand) [copA2-copR2 intergenic region]”, in [1], the Kd came to 2100 nM. Moreover, the binding entry in [3], in series [4] and in [2] was “binds” each time.
As for “GTTTTCATCCTCAGCTGCACGGGCTCACAGCTCAAACGATGCCGCCGATGATAACGGCGCAGGTTCGCCTATTGGATGACAAGACTGTAATCGTTTCGTCCCCGTTTGAAAGGGTGTTGCGTACATAGAATCGCCGCTAATTCTGGATGACCGGCGCCGACAGCGCCTGGAGTGAACCATGTGGATTGTGC (double strand) [agrR control region]”, the figures for the Kd in series [1] and in series [5] were 16500 nM and 1600 nM, respectively. Further, the binding entry is reported as “binds more weakly” in [6]; “binds” in series [3]; “binds” in series [4]; “binds” in series [2]; “binds” in series [7].
Substance “TAGAACTGCCTGTGTTGAGCAGTTGCAGCATTGTACTGCCTCTAACGGTTGCAAAATGGCTATATCAAGATGACATTCGTGCAATGTTCGCCAATTCGTGGCAAAGCTCCGCTAGTGTCTCGGTCTATATCCAGAACCTCGAATAATGGGCCGGTACCAA (double strand) [czcL-czcR2 intergenic region]” gave a Kd in series [1] of 26500 nM. In other words, the double-digit micromolar range.
Regarding “TGAAGCCGATCCATGACATAGTCTCCCTGTTCACCGGTGAATTTTTACACGATCCGGGTGATTTATTGTTGAAAGCACAACCAATCATTGTGGACGGCGCTATTTATTCATATCAGGGAAATGCCTAATATCGCACCATCTGATGCCGCATTGCAGCACCGGTCCTGGGACCACCGGCATCCTTGAATGTGAAAGAGGATTCCATCATG (double strand) [prsQ1 promoter]”, the binding entry in series [1] is recorded as “no binding”.
As for agrR control region, the Kd is 16500 nM in series [8] and 1600 nM in series [9].
copA2-copR2 intergenic region came in with a Kd in series [8] of 2100 nM.
Substance czcL-czcR2 intergenic region gave a Kd in [8] of 26500 nM.
Consider prsQ2 promoter/operator, for which the Kd in [8] is 1600 nM.
